# According to patent US20150299328A1:
# Target: HIR extracellular domain (ECD) (human) (UniProt P06213)
# Assay: ELISA, HIR ECD plated
substance,measurement,value
CHO-derived HIRMAb-IDUA fusion protein (antibody),EC50,0.75 nM
